Earlier results, collected in publication PMC3325482.

Target: Cd200R (Rattus norvegicus) (UniProt Q9ES58)
Chain of UniProt Q9ES58 (Q9ES58 24-239): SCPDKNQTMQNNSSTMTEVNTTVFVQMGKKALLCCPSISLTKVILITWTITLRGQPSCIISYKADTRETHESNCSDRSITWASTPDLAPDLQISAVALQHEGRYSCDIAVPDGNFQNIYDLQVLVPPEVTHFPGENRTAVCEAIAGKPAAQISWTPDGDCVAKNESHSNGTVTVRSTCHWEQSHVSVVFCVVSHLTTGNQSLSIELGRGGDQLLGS

Kd: 2 µM
Substance: Cd200 (from UniProt P04218)
